The values that follow come from paper PMC10399232.

For this assay, the target named is eIF4E (mouse (endogenous in cerebellum)) (UniProt P63073). Nature of the assay: pull-down; m7GTP beads (30 ul) incubated with 500 ug mouse cerebellar lysate for 1 h at 4 C; lysis buffer 150 mM NaCl, 10 mM MgCl2, 30 mM tris pH 8.0, 1 mM DTT, 1.5% Triton X-100; washed three times in 100 mM KCl, 50 mM tris pH 7.4, 5 mM MgCl2, 0.5% Triton X-100; eIF4E and eIF4G blotted; eIF4G/eIF4E ratio normalized to the WT mean; CYFIP1 OE and WT mice.
Chain of UniProt P63073 (P63073 whole entry): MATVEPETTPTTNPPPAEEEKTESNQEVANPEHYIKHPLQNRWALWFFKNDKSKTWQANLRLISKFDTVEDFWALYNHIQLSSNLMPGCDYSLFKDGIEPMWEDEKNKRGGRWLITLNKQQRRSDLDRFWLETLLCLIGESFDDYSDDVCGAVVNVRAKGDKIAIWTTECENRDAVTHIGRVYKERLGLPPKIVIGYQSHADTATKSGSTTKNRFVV

As for eIF4G (natural protein), the eIF4G/eIF4E binding ratio in CYFIP1 OE mice, normalized to WT mean (fold of WT mean) stood at 1.68.
